The DeepSol protein solubility set

Experiment: soluble on expression in E. coli; label from the status in PepcDB or PDB records

Sequence	soluble on expression in E. coli
MSLEQLVLAIDLGTSGCKCALVSMEVDIRSWAFHGVPLHVSGLSAEQEPEDWWNAFMLGAHELLGADPLRRRQVVAICCSTQSEGTVCVDRNGAAIGRALLWLDKRGADSIKQRMGGGWCNLGGYGPLKLWRSLRLTGGVASLSGMDSAGHMAYILDHDPARYEKTHKFLNVLDYMNMRLSGRYCATGDSMLTAWITDNRDPHRIRYDDGLIRALGIDAGKLPELVGSTEVIGTLKPELADVLGLPRSTPVVAGAVDTSAVAVGATVRDFAPHLYLGTSSWVGAHVPFKKSSVRHHIAAVPSAVKGRYLAMAMQSAAGANLSFLRDKVLYHPDELLSDEQQPDVYALLDRIAARVPPGSRGLIYTPWLCGERSPVGDPSLRAGLINLKLEHSREDIIRAFMEGVAHNTRWMLEPFSRFIGQSSEIIVATGGGAQSDVWCQIMADVCGRVIQQPHNPIQTNARGAAFIAAVALGKLQFNDLPTLQRPHRLYEPSRSTRNLYDNRFATFKEVRKRLAPLYRRLNPSQETTEGHHHHHH	not soluble
MQARRYLLRPAARLRRSRRIATAAPERLWLFDLDNTLHDTSHAIFPLIDRGMTEAVAETLAVDEATANRLRAEYWRRYGATVIGLVRHHGVDADAFLHRSHNFEVAPLVRAETALADKLRRLPGRKVLLTNAPLHYARAVLRHLGLLRQFDSIWAIEQMCMHGQFRPKPSDALLRYVLAREGVPAARAVLIEDTLDNLRSARRVGLRTVHVFHPGTPFARGHRQRPGYVDLRVNSVSDLLLRRRPLRG	not soluble
MGSDKIHHHHHHMAKLLPYQKRWINDRAPVKFWEKSRRIGASWGDAADSALVASKVKDDGGMSTYYLSYNKDMTRQYVADVAGWAKKFNLVAGELEEIVLADEDKDVTIYQVRFASGHVVQGLSSNPSNLRSKQGRVRIDEAAFVEDLGELLKAAIALTMWGGDVAVISTHNGEDSEFNQYIQDIRAGKREYSLHRTDLDDALAEGLYKAICSAKGLTWSVEAEIRWRQKLIADYGDGADEELFCVPSRSSGNWLSRNLIEPCMSAEIPVLRWSPPTANFVDWPLDRAYREVQDWCEGELRPLLDKLHREYVGCRHFFGEDFGRSGDLTVDVPLLELENLSLVTPFLLELRNAPYRTQEQMLAYFVDRLPRFSGGALDARGNGQALAEYARQRYGPELIQEVMLSQGWYREHMPPLKARLEDRTILLPKDAGVLDDLRGIKVFKGIARPPEASIKGKDGQRHCDSAVALALALYACNSIEAGEEWACATAGGGMARRMTHGY	not soluble
MRLIVVGIAEDITEKKQLETELQRLATTDVLTQSSNRRHFFECANREFEQARLQGSSLAFLLLDIDDFKVINDTYGHPEGDIVLQRIAESGRAALRRGDLFGRIGGEEFAAVFPGCTADMARQVAERLQREIQRQNFSHQGQTFTITVSQGLTGLLAEDESLDNLFARADSAMYEAKRQGKNRIITGLEHHHHHH	not soluble
MGSDKIHHHHHHMVSHKKNDRPRPLWILKIHKRLSLFEFKRYATGIGKDDGQDISWVLKGNAKNNVYQVTVETMENCETDECKKVIWVPDELAESTGTMFEDFKEDQPQESVSSISNNEANWGSSVNELDENYEKMQKEETFDPYDSDSDTSEDSDFDEDFEDSDKTMCSGQS	not soluble
MGSDKIHHHHHHMEAYQFIKDYKAHDPYRKSFIQLAKRIFNIDFAPWYEQGFWNDNYICYSYVDKHEVIANVSVNKMELIINGAKQEAIQIGTVMTAPEYRRQGLAKQLLQKALDDYDSAYDLYFLAANQEAIPLYETCGFQLIEENCYEIDMAGYTLLDKPLRRADVSPEAMVEVKKGSCPLSTVLSAQGDEHILMFYYTAGFRDFIYQVNKDVHVMFQLEGDVLHLYDIFSPAKVNVEQLVEQIAPLATKTVVCHFTPDHSVKQLTAKIDSTSSWMVRTTTKGFPPLARFPKISQA	not soluble
RLAVGDEITAAGELLAGGKILAIKGIGGFHLAVDASNEAAVRRLRSRKGREEKPFAVMVRDLAAARALCDISPEEKAALASPQAPIVLLRARQGLSLAPSIAPGNDRLGVMLPYSPLHWLLLREGPKVLVMTSANFSEEPLVADNAEALERLAGIADAFLMHDRPIARRCDDSVVMSMAGAVRLIRRSRGYAPAPVRLAES	not soluble
MGHHHHHHSHAKGKERQWLRHQATGELDDAKIIDGLTGEKAIYKRRGELEPQLGSPQQKPKRLRLVVDVSGSMYRFNRMDGRLERTMEAVCMVMEAFENYEEKFQYDIVGHSGDGYNIGLVPMNKIPKDNKQRLEILKTMHAHSQFCMSGDHTLEGTEHAIKEIVKEEADEYFVIVLSDANLSRYGIHPAKFAQILTRDPQVNAFAIFIGSLGDQATRLQRTLPAGRSFVAMDTKDIPQILQQIFTSTMLSSV	not soluble
MHLLLLHGFTSHPVLTLGPLSERLKEAGWEVRQPALPGHGTRPEDLLKVRFQDWLLAAEEAYLELPEPRGVVGLSMGGLLAAHLAARHPTKALVALAPAFALKNPLAPYLHWLIPRFPGPPSIEDPELRKRNPNYPYFPTRAVLELLALMRKTPEVLPRVKARALVVEAGKDRVVKGVDRYFALLGSPRKDHLVFPESGHDLLLDRDREEVARAVRDWLLASDNYLQ	soluble
MGSDKIHHHHHHMKLDPTSPSLNIMLANPRGFCAGVDRAISIVERALELFSPPIYVRHEVVHNRYVVQNLKDRGAVFVEELDQVPDNNIVIFSAHGVSQAVRQEAKARGLRVFDATCPLVTKVHLQVTRASRKGIECILIGHEGHPEVEGTMGQYDNPNGGVYLIESPADVDALEVRDPNNLCFVTQTTLSVDDTLDIIAALQKRFPSIEGPRKDDICYATQNRQDAVRNLSADVDLLIVVGSKNSSNSNRLRELALKTGTQSYLVDTADDVESSWFDNVSRVAVTAGASAPEVLVQQVVQAIAKLAPSVVTEVEGRKEDTVFAVPAELR	not soluble
MAHHHHHHMPNSVDCDFLNAPAHPPCNNRISASSRSRDGASIRNIGSISNIGARNRGARNCDQVIHTVYVKYFEMERYLGNINYNMDYFNPVLNHPTKIEHGKIKILILDAPTNDLLPLYIKEMKNYNVTDLVRTCERTYNDGEITSAGINVHELIFPDGDAPTVDIVSNWLTIVNNVIKNNRAVAVHCVAGLGRAPVLASIVLIEFGMDPIDAIVFIRDRRKGAINKRQLQFLKAYKKKKKKKNCLRKCHFM	not soluble
HHHHHHSSGLVPRGSHMSCEELEIVWNNIKAEARTLADCEPMLASFYHATLLKHENLGSALSYMLANKLSSPIMPAIAIREVVEEAYAADPEMIASAACDIQAVRTRDPAVDKYSTPLLYLKGFHALQAYRIGHWLWNQGRRALAIFLQNQVSVTFQVDIHPAAKIGRGIMLDHATGIVVGETAVIENDVSILQSVTLGGTGKSGGDRHPKIREGVMIGAGAKILGNIEVGRGAKIGAGSVVLQPVPPHTTAAGVPARIVGKPDSDKPSMDMDQHFNGINHTFEYGDGI	soluble
ANSFLEEMKKGHLERECMEETCSYEEAREVFEDSDKTNEFWNKYKDGDQCETSPCQNQGKCKDGLGEYTCTCLEGFEGKNCELFTRKLCSLDNGDCDQFCHEEQNSVVCSCARGYTLADNGKACIPTGPYPCGKQTLE	soluble
MKIALIQQKFHLNKEQTIKKTCEFIEEASKQGAELVCLGELHQSEYFCQSENVDFFDYANDYEKDVKFWANIARKNQIVLIASLFEKRSAGLYHNTAVVFEKDGSIAGKYRKMHIPDDPCFYEKFYFTPGDLGFEPINTSLGKLGVLICWDQWYPEAARIMALKGAEILIYPTAIGWFDKDKDEEKQRQLNAWLGVQKGHAIANGLYVVAINRVGFEKDVSGVEEGIRFWGNSFVFGPQGEELCLLDSQNECVKIIEIDKKRSENVRRWWPFLRDRRIEYFTDLTKRFID	soluble
NKYNKIANELIKIIGEDNIISITHCATRLRVMVKDREIINDKKVEKVDEVKGVFFTSGQYQIILGTGIVNKVYAEVEKMGLKTLSKKEQDELVKNNE	soluble
MGSDKIHHHHHHMINFSQIQVFITIVESGGFIAAGEKMHRSQPAITNAIKKLESSLGFELFDRKVYRPQLTAKGKAFYQKAREVVAQFMQLENSAETLRSGVETQFSIDLDIALPLPGYAPLIQSFIRQYPETCFSLSNNTFVRCLERLERRECHLCIAASHIRSPQIEYLRMPSIRMIPVASRDYYDQHKERINNPKLGIYCMQIMIAGTQQELYQLKIEPLSHSMPKWLVGDMYIRKQLILSGMGIGRLPDHLVEKELAEGSLVQLNTRDYVAVTMDIYAMRLNNQEHGMVSNYAWQSLKSYAEDTVSPDLK	not soluble
